This is an account of results in US20040102382A1, “Targeting peptides” (priority 2002, published 2004).

No end group written: not given here.

The subject of one assay is WiDr cells. The assay can be described thus: Phage binding specificity test (output/input ratio). On the set-up: species or system human. To be noted: fifth pool, PhD-C7C library.
The next assay concerns P815MUC1 cells. The assay can be described thus: Competition of phage binding by synthetic peptides. To be noted: for inhibition of WPY phage binding: increasing amounts of peptide (WPY 0.1, 10 and 500 μM). The arrangement: species or system mouse. As for the experimental part:
Synthetic peptides corresponding to the WPY and LPQ sequences of the previously selected phages (second and fourth sequences of Table 3) were synthetized (Neosystem, strasbourg, France). Increasing amounts of WPY peptide (0.1, 10 and 500 μM) and LPQ peptide (0.1, 10 and 1000 μM) or control peptides GHL and SGR (a non-selected phage from the PhD-C7C library) were diluted in a total volume of 1 ml of PBS-BSA1 % with 5.10^6 P815MUC1 cells and incubated for 1 hour at 4° C. under slight agitation. 1.10^10 WPY or LPQ phages in 200 μl of PBS-1% BSA were added and incubated with the cells and the peptide for two hours at 4° C. under slight agitation. Cells were then washed and bound phages eluted and titered following the same protocol as for the selections.

The target of assay [1] is coxsackievirus-adenovirus receptor (CAR) on cells (UniProt P78310). As to the kind of experiment: cell-based or functional assay.
Assay [2] concerns the target MUC1 as expressed on P815MUC1 cells (P815 mouse mastocytoma cells transfected with MUC1 and Neomycin expression cassettes) (UniProt P15941). As to the kind of experiment: phage titration on MUC1-transfected against control-transfected P815 cells (FIG. 4).
Assay [3] shares this target. The assay can be described thus: phage titration on P815MUC1 cells (1.5e11 phages, 1e7 cells; FIG. 4); the same is said of MUC1-negative P815pAG60 cells.
Where [4] appears, read: increasing amounts of peptide (LPQ 0.1, 10 and 1000 μM), 1.10^10 phages, 4° C.

UniProt P78310, sequence (P78310 20-365 limits assumed): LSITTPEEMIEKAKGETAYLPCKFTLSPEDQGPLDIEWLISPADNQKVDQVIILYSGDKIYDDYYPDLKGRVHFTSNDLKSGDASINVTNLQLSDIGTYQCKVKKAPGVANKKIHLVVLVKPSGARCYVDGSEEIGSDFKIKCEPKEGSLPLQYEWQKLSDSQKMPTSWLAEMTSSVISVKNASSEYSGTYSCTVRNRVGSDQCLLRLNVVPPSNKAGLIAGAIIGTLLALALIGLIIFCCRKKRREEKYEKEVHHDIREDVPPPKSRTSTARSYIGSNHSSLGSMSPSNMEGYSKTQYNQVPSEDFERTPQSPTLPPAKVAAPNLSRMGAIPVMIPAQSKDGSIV

For the molecule CLPSTRQTC [CLPSTRWTC], the “binding to WiDr cells compared to the subtractor 293 cells” value with WiDr cells is on record as “specific binding”.

On to “GHLIPLRQPSHQ [GHL used as control peptide and non-selected PhD12 control phage, reference compound]”, for which the “inhibition of LPQ phage binding” value with P815MUC1 cells (setting [4]) is “did not significatively inhibit”. The “inhibition of WPY phage binding” value with P815MUC1 cells (1.10^10 phages, 4° C.) is “did not significatively inhibit”.

For the molecule CWPYPSHFC, the “inhibition of LPQ phage binding” value with P815MUC1 cells (500 μM concentration of non-corresponding peptide) is “did not significatively inhibit”. Also, the “inhibition of WPY phage binding” value in the assay on P815MUC1 cells (1.10^10 phages, 4° C.) is reported as “inhibit in a dose-dependant manner”.

Consider LPQRAFWVPPIV, for which, in the assay on P815MUC1 cells (setting [4]), the “inhibition of LPQ phage binding” value was “inhibit in a dose-dependant manner”.

“Adenovirus type 5 wild-type fiber protein, as carried by the Ad-fbwt virus (from UniProt P11818 1-581)” displayed an inhibition of infection of 293 and HeLa cells (β-galactosidase activity, % of control) by soluble knob at 10 µg/ml in assay [1] above 90%.

The molecule LPQRAFWVPPIV (not fully specified (C-terminus)) [LPQ phage (M13 phage of the PhD-12 library displaying …)] returned a fold binding to P815MUC1 cells over P815pAG60 cells in assay [2] above 3 times. In assay [3], this molecule displayed a fold higher affinity than the control phages (M13, GHL) above 100 fold.

Regarding WPTSPWSSRDWS (not fully specified (C-terminus)), the fold binding to P815MUC1 cells over P815pAG60 cells in assay [2] was above 3 times. Also, the fold higher affinity than the control phages (M13, GHL) in assay [3] was above 100 fold.

On to WPTSPWLEREPA (not fully specified (C-terminus)), for which the fold binding to P815MUC1 cells over P815pAG60 cells in assay [2] is above 3 times. The fold higher affinity than the control phages (M13, GHL) in assay [3] was above 100 fold.

WPVRPWMPGPVV (not fully specified (C-terminus)) [WPV phage (M13 phage of the PhD-12 library displaying …)]: the fold binding to P815MUC1 cells over P815pAG60 cells in assay [2] was above 3 times. This molecule came in with a fold higher affinity than the control phages (M13, GHL) in assay [3] above 100 fold.

With MPLPQPSHLPLL (not fully specified (C-terminus)) [MPL phage (M13 phage of the PhD-12 library displaying …)], the fold binding to P815MUC1 cells over P815pAG60 cells in assay [2] is above 3 times. In assay [3], this molecule came in with a fold higher affinity than the control phages (M13, GHL) above 100 fold.
